No end group written: not given here.
Experiments:
[1] = molecular target: melanocortin receptor 2 (MC2R); assay: cell-based or functional assay
[2] = molecular target: melanocortin receptor 2 (MC2R); assay: cell-based or functional assay; remark: listed apart in the source

melanocortin receptor 2 (MC2R), sequence (Q01718 whole entry): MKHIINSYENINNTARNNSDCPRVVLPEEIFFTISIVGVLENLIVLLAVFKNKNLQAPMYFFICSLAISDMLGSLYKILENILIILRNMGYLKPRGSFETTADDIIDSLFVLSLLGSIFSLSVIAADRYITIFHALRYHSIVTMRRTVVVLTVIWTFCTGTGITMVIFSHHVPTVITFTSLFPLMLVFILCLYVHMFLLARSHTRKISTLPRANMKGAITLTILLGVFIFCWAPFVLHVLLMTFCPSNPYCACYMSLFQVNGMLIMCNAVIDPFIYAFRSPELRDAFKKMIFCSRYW

Binder | activity of high-purity ACTH relative to low-purity ACTH (calcium ion signal, MC2R cells) [1] [fold] | EC50(nM), calcium ion signal in CHO-K1 cells expressing MC2R [2] [nM]
SYSMEHFRWGKPVGKKRRPVKVYPNGAEDESAEAFPLEF (also: acetate salt) [high-purity ACTH (human sequence SEQ ID NO: 3, 99.88%)] | 1.6 | 180
SYSMEHFRWGKPVGKKRRPVKVYPNGAEDESAEAFPLEF [low-purity ACTH (human sequence SEQ ID NO: 3, 75.72%)] | – | 288

Reference: patent US20220401521A1 (NANJING HANXIN PHARMACEUTICAL TECHNOLOGY, published 2022)
